Data from US20240000938A1.

What was measured:
[1] = target: HLA-A*02 on cells (human); experiment: cell-based or functional assay
[2] = target: streptavidin-PE-HLA-A*02-pMHC or streptavidin-APC-HLA-A*02-pMHC tetramer (human); experiment: flow cytometry; HLA-A*02 positive donor primary T cells with CAR and A*02 blocker, after B2M knockout with sgRNA B2M-6
[3] = target: streptavidin-PE-HLA-A*02-pMHC or streptavidin-APC-HLA-A*02-pMHC tetramer (human); experiment: flow cytometry; HLA-A*02 positive donor primary T cells with CAR and A*02 blocker, after B2M knockout with sgRNA B2M-3
[4] = target: streptavidin-PE-HLA-A*02-pMHC or streptavidin-APC-HLA-A*02-pMHC tetramer (human); experiment: flow cytometry; HLA-A*02 positive donor primary T cells with CAR and A*02 blocker, before B2M knockout

inhibition of IFNγ induction in primary T cells (HeLa cells) [1]: > 5 fold | inhibition of IFNγ induction in primary T cells (SiHa cells) [1]: > 10 fold | suppression of pan HLA scFv CAR signal (T2 cells) [1]: < 25 fold | % of the cell population stained with the A*02 blocker probe [2]: 44% | % of the cell population stained with the A*02 blocker probe [3]: 40.7% | % of cells negative for the A*02 blocker probe [4]: > 85% | % of the cell population stained with the A*02 blocker probe [4]: 14.8%
Substance: HLA-A*02 PA2.1 ScFv LIR1 inhibitor (C1765) (from UniProt Q8NHL6 398-650)
